In PMC10237034 (Molecular Cell, 2023):
Blank lines part the entries; values can stand above or below the binder they belong to.

Key:
Assay in all cases: cryo-EM structure
TFIIH subunit XPB = TFIIH subunit XPB (human, UniProt P19447 1-782)
histone H2B = histone H2B (X. laevis, UniProt P02281)
histone H4 = histone H4 (X. laevis, UniProt P62799)

TFIIH subunit XPB, sequence (P19447 whole entry): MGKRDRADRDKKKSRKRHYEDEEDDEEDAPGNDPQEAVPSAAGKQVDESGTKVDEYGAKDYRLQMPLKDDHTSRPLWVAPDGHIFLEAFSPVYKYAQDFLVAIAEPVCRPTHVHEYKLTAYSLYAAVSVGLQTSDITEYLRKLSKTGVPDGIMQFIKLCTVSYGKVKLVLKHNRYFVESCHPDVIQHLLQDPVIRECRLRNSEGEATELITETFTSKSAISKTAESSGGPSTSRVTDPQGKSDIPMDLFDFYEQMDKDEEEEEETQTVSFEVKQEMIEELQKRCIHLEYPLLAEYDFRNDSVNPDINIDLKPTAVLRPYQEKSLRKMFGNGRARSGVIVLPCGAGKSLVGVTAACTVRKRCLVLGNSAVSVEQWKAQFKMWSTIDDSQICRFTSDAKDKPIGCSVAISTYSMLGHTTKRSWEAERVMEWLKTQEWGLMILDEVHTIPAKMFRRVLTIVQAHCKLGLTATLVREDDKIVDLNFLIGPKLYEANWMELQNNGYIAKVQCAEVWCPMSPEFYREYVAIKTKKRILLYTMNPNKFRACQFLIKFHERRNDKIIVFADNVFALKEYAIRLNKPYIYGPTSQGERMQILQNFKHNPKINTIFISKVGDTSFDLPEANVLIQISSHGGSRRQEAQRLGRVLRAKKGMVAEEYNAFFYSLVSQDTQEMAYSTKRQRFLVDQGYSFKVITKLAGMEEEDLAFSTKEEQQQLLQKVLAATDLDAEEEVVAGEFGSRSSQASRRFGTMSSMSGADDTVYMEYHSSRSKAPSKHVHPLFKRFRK

binding result (TFIIH subunit XPB): binds
B1: TFIIH subunit MAT1 (natural protein)
chain: MDDQGCPRCKTTKYRNPSLKLMVNVCGHTLCESCVDLLFVRGAGNCPECGTPLRKSNFRVQLFEDPTVDKEVEIRKKVLKIYNKREEDFPSLREYNDFLEEVEEIVFNLTNNVDLDNTKKKMEIYQKENKDVIQKNKLKLTREQEELEEALEVERQENEQRRLFIQKEEQLQQILKRKNKQAFLDELESSDLPVALLLAQHKDRSTQLEMQLEKPKPVKPVTFSTGIKMGQHISLAPIHKLEEALYEYQPLQIETYGPHVPELEMLGRLGYLNHVRAASPQDLAGGYTSSLACHRALQDAFSGLFWQPS

binding result (histone H2B): binds
binding result (histone H4): binds
B2: TFIIH subunit p8 (natural protein)
chain: MVNVLKGVLIECDPAMKQFLLYLDESNALGKKFIIQDIDDTHVFVIAELVNVLQERVGELMDQNAFSLTQK
